Experiments:
[1] = molecular target: Rab11a (1–211) S40A (human) (UniProt P62491)
[2] = molecular target: Rab11a (1–211) K41A (human) (UniProt P62491)
[3] = molecular target: Rab11a (1–211) L38A (human) (UniProt P62491)
[4] = molecular target: Rab11a (1–211) E39A (human) (UniProt P62491)
[5] = molecular target: Rab11a (1–211) S42A (human) (UniProt P62491)
[6] = molecular target: Rab11a (1–173) (human) (UniProt P62491)
[7] = molecular target: T1, SH3BP5 (10–276) (human, UniProt O60239 10-276); assay: crystal structure; SH3BP5 (10–276)–Rab11a (1–173) complex at 6.2 g/l, sitting drop vapor diffusion at 20°C; reservoir 0.4–0.75 M NaCl, 0.1 M NaH2PO4 (pH 6.8), 15–17% PEG2000; 3.8 Å; four complexes in the asymmetric unit; details: both partners purified
T1 construct: Residues 10–41 and 268–276 were invisible in the electron density; The purification of this construct and of the complex is not described; also called wild-type SH3BP5 (10–276); source: E. coli Rosetta (DE3)
T1 sequence (looked up): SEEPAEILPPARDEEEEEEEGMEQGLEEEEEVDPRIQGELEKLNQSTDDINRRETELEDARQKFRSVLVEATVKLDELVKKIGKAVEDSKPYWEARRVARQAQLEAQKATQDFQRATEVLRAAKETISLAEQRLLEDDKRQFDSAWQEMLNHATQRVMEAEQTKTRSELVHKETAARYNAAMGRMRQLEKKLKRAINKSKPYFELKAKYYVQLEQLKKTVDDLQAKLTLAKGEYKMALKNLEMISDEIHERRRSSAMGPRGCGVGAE

B1: SH3BP5 (41–266; R260A/R261A/R262A) (domain or fragment)
chain: VDPRIQGELEKLNQSTDDINRRETELEDARQKFRSVLVEATVKLDELVKKIGKAVEDSKPYWEARRVARQAQLEAQKATQDFQRATEVLRAAKETISLAEQRLLEDDKRQFDSAWQEMLNHATQRVMEAEQTKTRSELVHKETAARYNAAMGRMRQLEKKLKRAINKSKPYFELKAKYYVQLEQLKKTVDDLQAKLTLAKGEYKMALKNLEMISDEIHEAAASSAM
**Q.** Which results are given for B1?
**A.** GEF activity: Mant-GDP release from Rab11a by fluorescence, with GppNHp (% of the wild-type activity) [1]: 25; GEF activity: Mant-GDP release from Rab11a by fluorescence, with GppNHp (% of the wild-type activity) [2]: 25; GEF activity: Mant-GDP release from Rab11a by fluorescence, with GppNHp (% of the wild-type activity) [3]: 50; GEF activity: Mant-GDP release from Rab11a by fluorescence, with GppNHp (% of the wild-type activity) [4]: 50; GEF activity: Mant-GDP release from Rab11a by fluorescence, with GppNHp (% of the wild-type activity) [5]: 25

B2: SH3BP5-RA E251A (domain or fragment)
chain: VDPRIQGELEKLNQSTDDINRRETELEDARQKFRSVLVEATVKLDELVKKIGKAVEDSKPYWEARRVARQAQLEAQKATQDFQRATEVLRAAKETISLAEQRLLEDDKRQFDSAWQEMLNHATQRVMEAEQTKTRSELVHKETAARYNAAMGRMRQLEKKLKRAINKSKPYFELKAKYYVQLEQLKKTVDDLQAKLTLAKGEYKMALKNLAMISDEIHEAAASSAM
**Q.** B2 was tested. Which GEF activity: Mant-GDP release from Rab11a by fluorescence, with GppNHp (%, relative to wild type) [6] did it give?
**A.** Its GEF activity: Mant-GDP release from Rab11a by fluorescence, with GppNHp (%, relative to wild type) is 50.

B3: Rab11a (1–173) (domain or fragment, human, UniProt P62491 1-173, looked up)
chain: MGTRDDEYDYLFKVVLIGDSGVGKSNLLSRFTRNEFNLESKSTIGVEFATRSIQVDGKTIKAQIWDTAGQERYRAITSAYYRGAVGALLVYDIAKHLTYENVERWLKELRDHADSNIVIMLVGNKSDLRHLRAVPTDEARAFAEKNGLSFIETSALDSTNVEAAFQTILTEIY
notes: human Rab11a, residues 1–173; Nucleotide-free in the complex structure (a phosphate ion on the P loop); loaded with Mant-GDP in the GEF assay; source: E. coli Rosetta (DE3), purified (Ni-NTA, Ulp1 cleavage, Superdex200, second Ni-NTA); not shown: His6-SUMO, N-terminal, cleaved
**Q.** Does B3 bind [7]?
**A.** Result: binds
